Where two headings read alike, the source gives them in different places.
Experiments:
ThyX = molecular target: T1, ThyX (Mycobacterium tuberculosis, UniProt P9WG57); assay: biochemical
T1 construct: C-terminal His-Tag

ThyA = molecular target: T2, ThyA (Mycobacterium tuberculosis, UniProt P9WFR9); assay: biochemical
T2 construct: N-terminal His-Tag

[1] = system: Nc1nc2c(c(=O)[nH]1)N1CN(c3ccc(C(=O)N[C@@H](CCC(=O)O)C(=O)O)cc3)CC1CN2; assay: purified protein
[2] = system: O=c1ccn([C@H]2C[C@H](O)[C@@H](COP(=O)(O)O)O2)c(=O)[nH]1; assay: purified protein
[3] = system: NC(=O)C1=CN([C@@H]2O[C@H](COP(=O)(O)OP(=O)(O)OC[C@H]3O[C@@H](n4cnc5c(N)ncnc54)[C@H](OP(=O)(O)O)[C@@H]3O)[C@@H](O)[C@H]2O)C=CC1; assay: purified protein; conditions: FAD
SEC = molecular target: the molecule itself; assay: SEC

T2 sequence (P9WFR9 2-266): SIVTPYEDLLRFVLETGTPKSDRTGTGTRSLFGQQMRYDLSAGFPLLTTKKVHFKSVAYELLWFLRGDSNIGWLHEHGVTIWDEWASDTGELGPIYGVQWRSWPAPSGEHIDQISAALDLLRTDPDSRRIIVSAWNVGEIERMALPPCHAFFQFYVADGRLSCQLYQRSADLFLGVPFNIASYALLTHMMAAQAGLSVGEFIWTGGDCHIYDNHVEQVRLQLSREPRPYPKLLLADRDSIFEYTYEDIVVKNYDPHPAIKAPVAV

Molecule: O=c1[nH]c(=O)n([C@H]2C[C@H](O)[C@@H](COP(=O)(O)O)O2)cc1F [FdUMP, 5-Fluoro-2′-deoxyuridine 5′-monophosphate]
- Ki (ThyX): 100 ± 10 nM
- Ki (ThyA): 2 ± 0.2 nM

Molecule: ThyA (Mycobacterium tuberculosis H37Rv)
- Km [1]: 70 ± 30 µM
- Km ([2]; mTHF): 4 ± 0.7 µM

Molecule: ThyX (Mycobacterium tuberculosis H37Rv)
- Km [3]: 47 ± 10 µM
- Km ([1]; FAD): 4.0 ± 1 µM
- Km ([2]; FAD): 3 ± 0.7 µM

B1: Histidine-tagged M. tuberculosis ThyX (flavin-dependent thymidylate synthase) (enzyme)
chain: MAETAPLRVQLIAKTDFLAPPDVPWTTDADGGPALVEFAGRACYQSWSKPNPKTATNAGYLRHIIDVGHFSVLEHASVSFYITGISRSCTHELIRHRHFSYSQLSQRYVPEKDSRVVVPPGMEDDADLRHILTEAADAARATYSELLAKLEAKFADQPNAILRRKQARQAARAVLPNATETRIVVTGNYRAWRHFIAMRASEHADVEIRRLAIECLRQLAAVAPAVFADFEVTTLADGTEVATSPLATEA
notes: also called FDTS
- stoichiometry N (SEC): 4

Source: publication PMC2386288, “Kinetics and Ligand-Binding Preferences of Mycobacterium tuberculosis Thymidylate Synthases, ThyA and ThyX” (PLoS ONE, 2008)
